Data taken from IntAct's records for PubMed 24937146.

B1: Microtubule protein alp7 (Schizosaccharomyces pombe (strain ATCC 38366 / 972)), Q9URY2 (parent)
chain: MSDIVSSSTDYSRRSPSSSSIGTNETDHTGFHEKRQGASSESLIPPAQRSSEESMPAPKLFPKLTSKPNPQLNLKDTLNKRVSDRLQALELNKSFDFSGTPRPMHPISHPLSQHKTPEFKHRKRNVESILTPKNPSLFSSSNAASQRGSLNTAPSNFAYSHSSSLQTSASSRPPVLSNGSFPRQTNTAPLNPPVHLKDNIRNSATPSTSQADIPTQYPINSTQKQQAKYEAEIEGYKAKLAGTYHEISVLQNTIVNVSGQLIAVNDQLQQLRSGKASTSPSTKDTNMRLVEGHNEETLALQRGKYTQEEVDKLIQERMEKVAEDLHAQYSAKHTQKINAFKANYARKYEATIQELQNQIGTAPNAPKISNSNWEEERRALKADNQTLQKQLEKAIQERQDMSDFLNNFKADMAKSDKLLMQQQSQQTGDLETLRLQLQALQEELRVEREERQQLIQMSEDLVIAMDQLNLEQKS
partner: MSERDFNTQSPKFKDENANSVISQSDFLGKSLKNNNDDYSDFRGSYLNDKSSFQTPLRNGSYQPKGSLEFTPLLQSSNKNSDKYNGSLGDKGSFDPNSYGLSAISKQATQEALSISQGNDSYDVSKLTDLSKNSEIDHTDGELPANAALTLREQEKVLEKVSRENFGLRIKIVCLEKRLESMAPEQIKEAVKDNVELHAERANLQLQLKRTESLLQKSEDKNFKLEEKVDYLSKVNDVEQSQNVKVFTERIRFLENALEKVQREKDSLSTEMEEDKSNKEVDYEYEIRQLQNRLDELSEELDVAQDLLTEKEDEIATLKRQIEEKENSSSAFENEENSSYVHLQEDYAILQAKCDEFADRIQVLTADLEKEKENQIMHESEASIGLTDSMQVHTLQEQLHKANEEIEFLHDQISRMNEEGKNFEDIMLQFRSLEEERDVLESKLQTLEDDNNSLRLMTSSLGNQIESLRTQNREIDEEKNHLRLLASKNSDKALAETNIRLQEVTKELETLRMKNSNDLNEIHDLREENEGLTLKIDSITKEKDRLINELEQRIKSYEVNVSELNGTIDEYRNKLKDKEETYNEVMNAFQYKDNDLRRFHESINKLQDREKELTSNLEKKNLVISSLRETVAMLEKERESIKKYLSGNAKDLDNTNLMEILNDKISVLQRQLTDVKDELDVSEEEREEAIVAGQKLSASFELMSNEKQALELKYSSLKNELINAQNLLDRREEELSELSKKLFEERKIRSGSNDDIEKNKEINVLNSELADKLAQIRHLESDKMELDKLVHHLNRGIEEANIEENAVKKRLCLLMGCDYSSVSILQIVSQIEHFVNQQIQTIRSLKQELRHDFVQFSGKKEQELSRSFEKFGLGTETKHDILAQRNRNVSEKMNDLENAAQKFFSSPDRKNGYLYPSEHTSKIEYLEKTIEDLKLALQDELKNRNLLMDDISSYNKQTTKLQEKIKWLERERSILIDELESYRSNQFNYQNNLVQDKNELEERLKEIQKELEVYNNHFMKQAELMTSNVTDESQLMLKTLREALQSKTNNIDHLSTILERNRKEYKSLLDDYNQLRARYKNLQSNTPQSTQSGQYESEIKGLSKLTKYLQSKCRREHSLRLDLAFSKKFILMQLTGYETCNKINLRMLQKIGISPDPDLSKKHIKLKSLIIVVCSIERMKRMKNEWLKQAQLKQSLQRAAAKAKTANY
B2: Microtubule protein alp7 (Schizosaccharomyces pombe (strain ATCC 38366 / 972)), Q9URY2 (parent)
chain: B1 chain
partner: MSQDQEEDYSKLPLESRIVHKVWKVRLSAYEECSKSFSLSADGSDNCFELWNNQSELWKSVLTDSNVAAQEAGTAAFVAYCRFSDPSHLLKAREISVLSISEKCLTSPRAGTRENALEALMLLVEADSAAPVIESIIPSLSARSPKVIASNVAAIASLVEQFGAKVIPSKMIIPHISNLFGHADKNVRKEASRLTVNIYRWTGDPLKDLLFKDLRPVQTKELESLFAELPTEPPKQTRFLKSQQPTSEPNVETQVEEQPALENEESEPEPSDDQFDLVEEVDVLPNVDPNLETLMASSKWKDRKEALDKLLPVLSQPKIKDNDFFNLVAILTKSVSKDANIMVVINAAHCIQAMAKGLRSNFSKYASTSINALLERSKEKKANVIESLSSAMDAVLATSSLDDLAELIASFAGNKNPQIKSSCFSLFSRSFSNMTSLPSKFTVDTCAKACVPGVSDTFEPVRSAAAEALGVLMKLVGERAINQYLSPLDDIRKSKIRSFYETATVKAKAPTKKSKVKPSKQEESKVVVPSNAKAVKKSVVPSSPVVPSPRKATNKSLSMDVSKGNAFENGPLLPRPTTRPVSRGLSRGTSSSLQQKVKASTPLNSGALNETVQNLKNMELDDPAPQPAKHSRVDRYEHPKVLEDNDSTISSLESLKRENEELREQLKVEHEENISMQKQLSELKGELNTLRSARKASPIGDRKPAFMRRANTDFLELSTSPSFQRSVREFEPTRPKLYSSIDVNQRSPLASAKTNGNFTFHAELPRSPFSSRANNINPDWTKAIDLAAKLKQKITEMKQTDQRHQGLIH
B3: Microtubule protein alp7 (Schizosaccharomyces pombe (strain ATCC 38366 / 972)), Q9URY2 (parent)
chain: B1 chain
partner: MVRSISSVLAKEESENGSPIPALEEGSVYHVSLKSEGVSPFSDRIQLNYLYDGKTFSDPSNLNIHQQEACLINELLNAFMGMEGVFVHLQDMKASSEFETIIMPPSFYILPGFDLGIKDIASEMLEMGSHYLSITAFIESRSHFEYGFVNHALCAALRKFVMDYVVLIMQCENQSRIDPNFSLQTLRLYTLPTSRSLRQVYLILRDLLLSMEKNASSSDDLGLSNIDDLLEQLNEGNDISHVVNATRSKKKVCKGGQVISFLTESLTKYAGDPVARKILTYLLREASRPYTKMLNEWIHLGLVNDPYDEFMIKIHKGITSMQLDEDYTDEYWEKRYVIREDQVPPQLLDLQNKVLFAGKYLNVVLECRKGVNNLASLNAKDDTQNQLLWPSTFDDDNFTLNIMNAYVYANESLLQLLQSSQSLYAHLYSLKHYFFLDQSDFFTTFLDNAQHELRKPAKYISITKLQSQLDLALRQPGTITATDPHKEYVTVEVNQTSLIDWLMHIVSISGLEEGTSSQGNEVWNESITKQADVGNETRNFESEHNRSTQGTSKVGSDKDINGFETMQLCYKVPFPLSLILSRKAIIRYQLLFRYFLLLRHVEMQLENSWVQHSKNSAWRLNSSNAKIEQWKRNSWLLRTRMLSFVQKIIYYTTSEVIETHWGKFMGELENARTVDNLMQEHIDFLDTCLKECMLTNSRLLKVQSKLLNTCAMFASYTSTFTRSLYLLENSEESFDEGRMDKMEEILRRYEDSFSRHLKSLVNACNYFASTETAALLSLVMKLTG

Variants of: B1
Conditions: with pcp1_schpo pcp1, Q92351

| effect of a mutation on the interaction | Variant |
| --- | --- |
| disrupting interaction | K341A;Y344A;R346A;K347A;Y348A |

Variants of: B2
Conditions: with alp14_schpo alp14, O94534

| effect of a mutation on the interaction | Variant |
| --- | --- |
| disrupting interaction | K341A;Y344A;R346A;K347A;Y348A |

Variants of: B3
Conditions: with spc97_schpo alp4, Q9Y705

| effect of a mutation on the interaction | Variant |
| --- | --- |
| disrupting interaction | K341A;Y344A;R346A;K347A;Y348A |
